Laboratory results from US20090092595A1, “Suppression of sPLA2-integrin binding for treating an inflammatory condition” (REGENTS OF THE UNIVERSITY OF CALIFORNIA, priority 2007, published 2009).
Numbering of substitutions follows the chain as printed. In names and notes the source's numbering stands. Each block holds one molecule with its values, some of them ahead of it.

Experiments:
integrin α4β1 = biological target: T1, integrin α4β1 (Homo sapiens, UniProt P05556+P13612); assay: Adhesion of α4-K562 cells (recombinant α4β1) to immobilized sPLA2-IIA; assay type: cell-based; settings: data not shown
T1 construct: K562 cells have endogenous α5β1; expressed in transfected cells; host or cells: K562
Protocol: FIG. 5. sPLA2-IIA binding to integrin α4β1. a) Cells expressing recombinant α4β1 adhered to wt sPLA2-IIA better than cells expressing other recombinant integrins. We used transfected K562 cells clonally express different human integrins for adhesion assays. Low background adhesion to BSA was subtracted. […] Wells of 96-well microtiter plate were coated with VCAM-1 and FN-GST, and incubated with U937 cells (1×10^4 cells/plate) in the presence of the increasing concentrations of sPLA2-IIA for 1 h at 37° C. Adherent cells were quantified using endogenous phosphatase after gently rinsing the well to remove unbound cells. Data is shown as means+/−SEM of triplicate experiments. *P=0.0101 and **P<0.0001 by t-test. c) Amino acid sequence in the α4 subunit that is critical for VCAM-1 and CS-1 binding is also critical for sPLA2-IIA binding. CHO cells that clonally express wt or mutant α4 (Irie, A. et al., Embo J, 14(22): 5550-5556 (1995)) were used for adhesion assays. Data is shown as means+/−SEM of triplicate experiments. Similar results were obtained using K562 cells expressing α4 mutants (not shown).
Other methods We performed docking simulation of interaction between sPLA2-IIA and integrin αvβ3 using the AutoDock3 as previously described (Mori, S. et al., J Biol Chem, in press (2008)). […]

[1] = biological target: integrin αvβ3 on CHO cells expressing recombinant αvβ3 (β3-CHO) and on proteoglycan-deficient pgs745 cells (β3-745) (human) (UniProt P05106); assay: cell adhesion to coated sPLA2-IIA, 7E3 at 10 µg/ml in the medium; about the background level
[2] = Bradley et al. 2005; cited from earlier work
[3] = Bowton et al. 2005; cited from earlier work
soluble integrin αvβ3 = biological target: T2, soluble integrin αvβ3 (Homo sapiens, UniProt P05106+P06756); assay: Binding of soluble αvβ3 to immobilized sPLA2-IIA (ELISA-type assay); settings: immobilized protein, 20 μg/ml coating
T2 construct: Recombinant soluble αvβ3 was synthesized as previously described; made in house
Protocol: Binding of soluble αvβ3 to immobilized sPLA2-IIA sPLA2-IIA was immobilized to wells of 96 well microtiter plates and the remaining protein-binding sites were blocked by BSA as described (Mori, S. et al., J Biol Chem, 283:18066-18075 (2008)). Soluble recombinant αvβ3 at 5 μg/ml in Hepes-Tyrodes buffer supplemented with 1 mM MnCl2 was added to the well and incubated for 2 h. Bound αvβ3 was measured using anti-integrin β3 (mAb AV-10) followed by HRP-conjugated goat anti-mouse IgG and peroxidase substrates.

[4] = biological target: T3, recombinant soluble integrin αvβ3 (UniProt P06756 31-992; P05106 27-718); assay: SPR (Biacore), soluble αvβ3 amine-coupled to CM5 chip, sPLA2-IIA injected, 1 mM Mn2+, 1:1 binding with drifting baseline model
T3 construct: Soluble heterodimer; whole entries named only; also called soluble αvβ3; soluble recombinant αvβ3
Protocol: (§4) The mutant proteins were tested for binding to soluble integrin αvβ3.
(§5) Surface plasmon resonance study Recombinant soluble integrin αvβ3 was immobilized to Biacore Sensor chip CM5 (Biacore, Piscataway, N.J.) by the standard amine coupling method. […] Then the sensor chip was washed with the running buffer alone at the same flow rate for another 5 min (the dissociation phase). Two consecutive one-minute injections of 0.5 M, pH 8 EDTA solution at the same flow rate were used to regenerate the chip for another cycle of injection. The resonance unit elicited from the reference flow cell was subtracted from the resonance unit elicited from the integrin flow cell to eliminate the non-specific protein-flow cell interaction and the bulk refractive index effect. The recorded binding curves were fitted with the “1:1 binding with drifting baseline model” by using the Biaevaluation Version 4.1.

[5] = biological target: T4, integrin α4β1 on K562 cells expressing recombinant α4β1 (α4-K562) and on U937 human monocytic lymphoma cells (human, UniProt P13612 34-1032; P05556 21-798); assay: cell adhesion of α4-K562 cells to coated sPLA2-IIA
T4 construct: whole, on cells; Recombinant α4 in K562 cells; endogenous α4β1 in U937 cells; Treated as one molecule (human α4β1 on cells); also called α4-K562 cells; U937 cells (α4β1+)

[6] = test system: U937 human monocytic lymphoma cells; assay: Proliferation of U937 cells (MTS assay); assay type: cell-based; settings: serum-starved 48 h, treated 48 h
Protocol: (§1) U937 cells (αvβ3+, α4β1+) were plated in wells of 96-well plates (10,000 cells/well), and serum-starved for 48 h. After treatment with wt or mutant sPLA2-IIA for 48 h, we measured cell proliferation by MTS assays. […] U937 cells were serum-starved for 24 h, and stimulated with wt and mutant sPLA2-IIA (0.5 μg/ml) for 10 min at 37° C. Cell lysates were analyzed by western blotting with anti-phospho ERK1/2 or anti-ERK1/2 antibodies. The blot is representative of three independent experiments.
(§2) Cell proliferation and MAP kinase activation K562 cells and human monocytic lymphoma U937 cells were maintained in RPM11640 medium supplemented with 10% FCS. Cells were plated in 96-well plates (1×10^4 cells/well), and serum-starved for 48 h at 37° C. in 5% CO2 atmosphere. Cells were then treated with or without sPLA2-IIA in medium without serum for 48 h. Cell proliferation was determined by MTS assays using the Aqueous Cell Proliferation Assay Kit (Promega). For MAP kinase activation assays, cells were serum starved in RPMI1640 medium supplemented with 0.4% FCS for 24 h, and stimulated with Wt and mutant sPLA2-IIA (0.5 μg/ml) for 10 min at 37° C. ERK1/2 activation was measured as described (Mori, S. et al., J Biol Chem, in press (2008)).

αvβ3-K562 cells = assay: Proliferation of αvβ3-K562 cells (MTS assay); assay type: cell-based, human; settings: serum-starved 48 h, stimulated 48 h
Protocol: (§3) Cells were serum-starved for 48 h and stimulated with sPLA2-IIA for 48 h. Cell proliferation was determined by MTS assays. Data is shown as means+/−SEM of triplicate experiments. α4- and αvβ3-K562 cells proliferated faster than mock-K562 cells. […] Serum-starved cells were stimulated with wt or mutant sPLA2-IIA (0.5 μg/ml) for 48 h. Data is shown as means+/−SEM of triplicate experiments. α4-K562 and αvβ3-K562 cells grew faster than mock K562 cells with wt and H47Q sPLA2-IIA (*P<0.05 by t-test).
as §2

α4-K562 cells = assay: Proliferation of α4-K562 cells (MTS assay); assay type: cell-based, human; settings: serum-starved 48 h, stimulated 48 h
Protocol: as §3, §2

[7] = PLA2 activity by arachidonoyl-Thio-PC hydrolysis; assay type: biochemical; settings: effect of mutation on catalytic activity
Protocol: Other methods We performed docking simulation of interaction between sPLA2-IIA and integrin αvβ3 using the AutoDock3 as previously described (Mori, S. et al., J Biol Chem, in press (2008)). Adhesion assays were performed as described previously (Eto, K. et al., J. Biol. Chem., 277:17804-17810 (2002)). mAb 7E3 was used at 10 μg/ml. We assayed PLA2 activity by arachidonoyl-Thio-PC hydrolysis (Cayman Chemicals, Ann Arbor, Mich.) as described (Reynolds, L. J. et al., Anal. Biochem., 217:25-32 (1994)).

ERK1/2 = assay: MAP kinase (ERK1/2) activation in U937 cells, western blotting; assay type: cell-based, human; settings: 0.5 μg/ml, 10 min, 37° C.
Protocol: as §1, §2

[8] = biological target: T3, recombinant soluble integrin αvβ3; assay: SPR (Biacore), soluble αvβ3 amine-coupled to CM5 chip, mutant injected, 1 mM Mn2+, 1:1 binding with drifting baseline model
Protocol: as §4, §5

T2 sequence (P06756 31-992 limits assumed): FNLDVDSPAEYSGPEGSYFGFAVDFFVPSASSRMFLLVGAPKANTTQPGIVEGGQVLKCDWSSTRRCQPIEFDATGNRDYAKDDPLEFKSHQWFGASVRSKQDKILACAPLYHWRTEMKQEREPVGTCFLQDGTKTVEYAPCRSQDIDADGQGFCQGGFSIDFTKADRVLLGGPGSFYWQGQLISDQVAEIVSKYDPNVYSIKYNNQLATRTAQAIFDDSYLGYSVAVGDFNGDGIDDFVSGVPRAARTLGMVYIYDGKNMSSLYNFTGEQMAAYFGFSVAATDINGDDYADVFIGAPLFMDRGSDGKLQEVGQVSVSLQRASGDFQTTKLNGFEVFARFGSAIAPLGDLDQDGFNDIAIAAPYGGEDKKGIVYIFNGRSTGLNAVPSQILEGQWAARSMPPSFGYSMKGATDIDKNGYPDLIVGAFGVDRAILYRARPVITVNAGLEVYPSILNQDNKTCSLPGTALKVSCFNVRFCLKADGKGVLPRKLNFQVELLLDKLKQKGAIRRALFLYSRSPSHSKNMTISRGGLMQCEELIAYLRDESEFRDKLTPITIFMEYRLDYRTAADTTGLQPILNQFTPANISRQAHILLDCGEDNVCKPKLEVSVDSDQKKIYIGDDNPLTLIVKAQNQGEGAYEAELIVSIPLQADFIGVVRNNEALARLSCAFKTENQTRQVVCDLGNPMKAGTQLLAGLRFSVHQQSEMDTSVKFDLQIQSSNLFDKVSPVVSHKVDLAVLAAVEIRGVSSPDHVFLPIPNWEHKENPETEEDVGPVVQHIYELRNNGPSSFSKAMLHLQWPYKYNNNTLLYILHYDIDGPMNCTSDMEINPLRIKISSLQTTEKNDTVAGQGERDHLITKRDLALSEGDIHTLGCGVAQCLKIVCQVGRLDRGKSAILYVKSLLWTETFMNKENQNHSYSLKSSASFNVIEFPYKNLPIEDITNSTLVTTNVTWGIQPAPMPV
T2 sequence (P05106 27-718 limits assumed): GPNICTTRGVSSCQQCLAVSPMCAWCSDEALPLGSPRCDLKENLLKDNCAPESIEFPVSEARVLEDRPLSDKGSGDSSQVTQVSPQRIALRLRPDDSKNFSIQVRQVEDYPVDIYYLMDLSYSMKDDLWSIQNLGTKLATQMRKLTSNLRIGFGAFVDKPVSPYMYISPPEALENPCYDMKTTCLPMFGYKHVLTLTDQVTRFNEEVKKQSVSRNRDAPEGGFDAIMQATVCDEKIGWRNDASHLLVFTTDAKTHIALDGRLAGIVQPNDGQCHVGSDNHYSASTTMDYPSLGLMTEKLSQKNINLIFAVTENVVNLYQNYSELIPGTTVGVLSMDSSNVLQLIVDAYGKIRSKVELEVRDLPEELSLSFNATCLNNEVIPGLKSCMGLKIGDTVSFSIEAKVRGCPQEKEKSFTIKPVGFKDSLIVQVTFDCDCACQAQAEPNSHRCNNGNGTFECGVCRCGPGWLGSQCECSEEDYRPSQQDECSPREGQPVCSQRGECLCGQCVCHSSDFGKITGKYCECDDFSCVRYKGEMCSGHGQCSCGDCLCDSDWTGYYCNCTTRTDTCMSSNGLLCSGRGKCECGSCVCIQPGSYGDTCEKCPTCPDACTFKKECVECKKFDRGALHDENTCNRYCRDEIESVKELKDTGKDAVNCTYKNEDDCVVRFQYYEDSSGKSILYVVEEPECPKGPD
T3 sequence (P06756 31-992, chain 1 of 2): as the sequence (P06756 31-992 limits assumed) above
T3 sequence (P05106 27-718, chain 2 of 2): as the sequence (P05106 27-718 limits assumed) above
Chain of integrin αvβ3 on CHO cells expressing recombinant αvβ3 (β3-CHO) and on proteoglycan-deficient pgs745 cells (β3-745) (human) (P05106 27-788): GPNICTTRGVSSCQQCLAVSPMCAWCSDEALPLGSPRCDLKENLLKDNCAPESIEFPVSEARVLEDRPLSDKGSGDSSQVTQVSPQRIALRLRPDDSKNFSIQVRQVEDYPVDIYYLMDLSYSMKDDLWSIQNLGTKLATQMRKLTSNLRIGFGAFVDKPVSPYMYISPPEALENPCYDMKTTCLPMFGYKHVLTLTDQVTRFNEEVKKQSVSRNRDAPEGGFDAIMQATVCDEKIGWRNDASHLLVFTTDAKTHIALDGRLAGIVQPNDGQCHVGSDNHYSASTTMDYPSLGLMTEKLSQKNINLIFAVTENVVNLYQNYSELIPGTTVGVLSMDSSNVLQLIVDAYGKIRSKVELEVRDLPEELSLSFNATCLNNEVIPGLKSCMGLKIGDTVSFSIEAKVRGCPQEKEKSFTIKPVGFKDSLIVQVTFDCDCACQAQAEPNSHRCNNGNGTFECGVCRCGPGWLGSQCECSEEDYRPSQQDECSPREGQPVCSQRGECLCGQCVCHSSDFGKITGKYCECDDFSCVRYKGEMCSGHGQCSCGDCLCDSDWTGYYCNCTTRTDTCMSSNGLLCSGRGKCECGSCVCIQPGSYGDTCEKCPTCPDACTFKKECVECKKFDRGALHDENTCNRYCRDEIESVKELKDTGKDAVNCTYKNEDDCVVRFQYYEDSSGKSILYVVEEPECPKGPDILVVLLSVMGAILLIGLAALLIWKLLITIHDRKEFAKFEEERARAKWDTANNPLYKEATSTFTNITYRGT
T1 sequence (P13612 34-1032): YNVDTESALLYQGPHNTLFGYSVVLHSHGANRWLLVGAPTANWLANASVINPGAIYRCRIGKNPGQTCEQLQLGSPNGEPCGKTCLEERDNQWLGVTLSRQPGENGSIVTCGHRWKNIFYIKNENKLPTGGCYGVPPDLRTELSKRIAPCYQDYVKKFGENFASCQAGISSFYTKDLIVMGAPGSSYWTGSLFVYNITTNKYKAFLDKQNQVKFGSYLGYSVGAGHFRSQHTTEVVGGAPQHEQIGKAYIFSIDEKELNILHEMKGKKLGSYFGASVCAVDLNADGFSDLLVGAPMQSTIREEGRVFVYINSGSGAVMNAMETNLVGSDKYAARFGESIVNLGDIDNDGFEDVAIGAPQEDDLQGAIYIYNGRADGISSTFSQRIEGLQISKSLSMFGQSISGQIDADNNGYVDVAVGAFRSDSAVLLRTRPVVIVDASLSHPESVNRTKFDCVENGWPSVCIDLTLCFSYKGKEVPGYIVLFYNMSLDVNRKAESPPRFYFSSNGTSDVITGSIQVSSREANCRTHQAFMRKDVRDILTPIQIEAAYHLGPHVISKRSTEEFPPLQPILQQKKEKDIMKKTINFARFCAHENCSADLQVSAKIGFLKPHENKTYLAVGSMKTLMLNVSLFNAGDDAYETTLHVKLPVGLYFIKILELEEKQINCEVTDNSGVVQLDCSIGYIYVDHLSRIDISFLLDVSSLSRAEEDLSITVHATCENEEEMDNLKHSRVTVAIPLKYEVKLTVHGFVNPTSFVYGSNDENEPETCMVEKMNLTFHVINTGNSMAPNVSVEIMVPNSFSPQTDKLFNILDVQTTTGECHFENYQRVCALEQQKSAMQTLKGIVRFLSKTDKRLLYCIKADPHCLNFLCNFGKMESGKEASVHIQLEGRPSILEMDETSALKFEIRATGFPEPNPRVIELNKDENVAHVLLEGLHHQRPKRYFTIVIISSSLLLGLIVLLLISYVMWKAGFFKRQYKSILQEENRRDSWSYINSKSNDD
T1 sequence (P05556 21-798): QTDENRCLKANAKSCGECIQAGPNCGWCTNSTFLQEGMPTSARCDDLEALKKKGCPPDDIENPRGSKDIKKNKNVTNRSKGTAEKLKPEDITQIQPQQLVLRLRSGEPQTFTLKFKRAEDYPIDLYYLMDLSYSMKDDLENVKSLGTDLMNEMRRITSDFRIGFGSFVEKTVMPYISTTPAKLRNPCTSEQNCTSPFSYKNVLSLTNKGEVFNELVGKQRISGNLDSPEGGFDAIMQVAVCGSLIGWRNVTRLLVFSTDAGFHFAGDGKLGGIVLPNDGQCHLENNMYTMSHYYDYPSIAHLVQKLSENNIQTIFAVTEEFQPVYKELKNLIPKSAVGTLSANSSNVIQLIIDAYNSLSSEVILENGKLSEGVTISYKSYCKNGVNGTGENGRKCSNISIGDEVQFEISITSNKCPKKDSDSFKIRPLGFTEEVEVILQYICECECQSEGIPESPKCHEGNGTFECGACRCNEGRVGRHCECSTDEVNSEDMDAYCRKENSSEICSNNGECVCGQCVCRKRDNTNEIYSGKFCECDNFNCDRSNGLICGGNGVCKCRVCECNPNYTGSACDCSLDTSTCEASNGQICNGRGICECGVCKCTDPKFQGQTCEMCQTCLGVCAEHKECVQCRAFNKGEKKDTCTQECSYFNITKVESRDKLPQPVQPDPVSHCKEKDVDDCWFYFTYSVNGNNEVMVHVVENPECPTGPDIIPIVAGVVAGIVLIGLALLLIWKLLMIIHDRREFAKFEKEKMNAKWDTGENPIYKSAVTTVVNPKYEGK
T4 sequence (P13612 34-1032, chain 1 of 2): as the sequence (P13612 34-1032) above
T4 sequence (P05556 21-798, chain 2 of 2): as the sequence (P05556 21-798) above

Molecule: Cc1ccccc1NC(=O)Nc1ccc(CC(=O)N[C@@H](CCCCNC(=O)/C=C/c2cccnc2)C(=O)N[C@@H](CCCC(=O)O)C(=O)NC2(C(N)=O)CCCCC2)cc1 [LLP2A, reference compound]
- blocking of α4β1 binding to sPLA2-IIA in transfected K562 cells (integrin α4β1): did not block

- adhesion of β3-CHO cells to immobilized sPLA2-IIA in the presence of the antibody (%) [1]: 30%
Molecule: mAb 7E3 (specific to human β3 subunit, function blocking) (antibody)

Molecule: CCc1c(C(=O)C(N)=O)c2c(OCC(=O)[O-])cccc2n1Cc1ccccc1.[Na+] [S-5920/LY315920Na]
- therapeutic effect in rheumatoid arthritis [2]: failed to demonstrate a significant therapeutic effect
- therapeutic effect in asthma [3]: failed to demonstrate a significant therapeutic effect

Molecule: CCc1c(C(=O)C(N)=O)c2c(OCC(=O)OC)cccc2n1Cc1ccccc1 [S-3013/LY333013]
- therapeutic effect in rheumatoid arthritis [2]: failed to demonstrate a significant therapeutic effect
- therapeutic effect in asthma [3]: failed to demonstrate a significant therapeutic effect

- binding to soluble αvβ3 (soluble integrin αvβ3): bound
Molecule: disintegrin domain of ADAM15: a known αvβ3 ligand, positive control [reference compound]

- Kd [4]: 211 nM
- binding result [5]: binds
B1: wt sPLA2-IIA (secretory phospholipase A2 group IIA) (enzyme)
chain: NLVNFHRMIKLTTGKEAALSYGFYGCHCGVGGRGSPKDATDRCCVTHDCCYKRLEKRGCGTKFLSYKFSNSGSRITCAKQDSCRSQLCECDKAAATCFARNKTTYNKKYQYYSNKHCRGSTPRC
modifications: FITC label in the flow cytometry assay only (sites not given) ; FITC label (sites not given) in the flow cytometry assay only; the other assays used unlabelled protein.
notes: the form is read from the printed primers; also called FITC-sPLA2-IIA; FITC-labeled sPLA2-IIA; not shown: N-terminal vector-encoded residues with the His tag from the PET28a/amp vector (insert in the Bam HI site)

- binding to soluble αvβ3 (soluble integrin αvβ3): little or no effect
B2: R42E: sPLA2-IIA mutant, Arg-42 mutated to Glu (protein)
chain: B1 chain with R42E
modifications: left off: small tags and cut ends
notes: sPLA2-IIA mutant, Arg-42 mutated to Glu

- binding to soluble αvβ3 (soluble integrin αvβ3): did not affect the binding
B3: H47Q: catalytically inactive mutant of sPLA2-IIA, His-47 mutated to Gln (protein)
chain: B1 chain with H47Q
modifications: left off: small tags and cut ends
- proliferation of monocytic U937 cells [6]: induced robust proliferation
- proliferation of αvβ3-K562 cells (αvβ3-K562 cells): induced proliferation
- proliferation of α4-K562 cells (α4-K562 cells): induced proliferation
- PLA2 activity [7]: reduced PLA2 activity
- ERK1/2 activation in U937 cells (ERK1/2): induced

- binding to soluble αvβ3 (soluble integrin αvβ3): little or no effect
B4: R53E: sPLA2-IIA mutant, Arg-53 mutated to Glu (protein)
chain: B1 chain with R53E
modifications: left off: small tags and cut ends
notes: sPLA2-IIA mutant, Arg-53 mutated to Glu

- binding to soluble αvβ3 (soluble integrin αvβ3): reduced the binding
B5: R74E: sPLA2-IIA mutant, Arg-74 mutated to Glu (protein)
chain: B1 chain with R74E
modifications: left off: small tags and cut ends
notes: sPLA2-IIA mutant, Arg-74 mutated to Glu

- binding to soluble αvβ3 (soluble integrin αvβ3): effectively reduced the binding
B6: R74E/R100E: integrin-binding-defective combined mutant of sPLA2-IIA, Arg-74 and Arg-100 mutated to Glu (protein)
chain: B1 chain with R74E, R100E
modifications: left off: small tags and cut ends
- proliferation of monocytic U937 cells [6]: did not
- proliferation of αvβ3-K562 cells (αvβ3-K562 cells): did not induce proliferation
- proliferation of α4-K562 cells (α4-K562 cells): did not induce proliferation
- PLA2 activity [7]: did not affect PLA2 activity
- ERK1/2 activation in U937 cells (ERK1/2): did not induce

- binding to soluble αvβ3 (soluble integrin αvβ3): reduced the binding
B7: R100E: sPLA2-IIA mutant, Arg-100 mutated to Glu (protein)
chain: B1 chain with R100E
modifications: left off: small tags and cut ends
notes: sPLA2-IIA mutant, Arg-100 mutated to Glu

- Kd [8]: 1080 nM
B8: sPLA2-IIA R74E/R100E mutant (integrin-binding-defective) (enzyme, human, UniProt P14555 21-144, looked up)
chain: B1 chain with R74E, R100E
notes: mature; the printed positions appear to count on the mature protein; not shown: N-terminal vector-encoded residues with His tag from the PET28a/amp vector

- Kd [8]: 44.7 nM
B9: sPLA2-IIA H47Q mutant (catalytically inactive) (enzyme, human, UniProt P14555 21-144, looked up)
chain: B1 chain with H47Q
notes: mature; the printed positions appear to count on the mature protein, not on the precursor entry P14555; also called H47Q sPLA2-IIA; not shown: N-terminal vector-encoded residues with His tag from the PET28a/amp vector
